The chains are these.
B1: TIGIT-SC139 (Fc fusion)
VHH: EVQLVESGGGLVQPGGSLRLSCAASGFTLENNMMGWFRQAPGKEREFVAAISRSGTLKAYADSVKGRFTISADNSKNTAYLRMNSLKPEDTAVYYCAGLTSGGAFSYYWGQGTLVTVSS
notes: VHH-Fc fusion in assay
B2: TIGIT-SC142 (Fc fusion)
VHH: EVQLVESGGGLVQPGGSLRLSCAASGFSFDRWAMGWFRQAPGKEREFVAAIGWSGNLKAYADSVKGRFTISADNSKNTAYLQMNSLKPEDTAVYYCASGDGYSMDYFDPWGQGTLVTVSS
notes: VHH-Fc fusion in assay
B3: TIGIT-SC192 (Fc fusion)
VHH: EVQLVESGGGLVQPGGSLRLSCAASGFTFSVYWMGWFRQAPGKEREFVAAISRSGTLKEYADSVKGRFTISADNSKNTAYLQMNSLKPEDTAVYYCARGSGWPKIHFDYWGQGTLVTVSS
notes: VHH-Fc fusion in assay
B4: TIGIT-SC193 (Fc fusion)
VHH: EVQLVESGGGLVQPGGSLRLSCAASGFTFSDYWMGWFRQAPGKEREFVAAISRSGTLKAYADSVKGRFTISADNSKNTAYLQMNSLKPEDTAVYYCARGSGWPKIHFDYWGQGTLVTVSS
notes: VHH-Fc fusion in assay
B5: TIGIT-SC45 (Fc fusion)
VHH: EVQLVESGGGLVQPGGSLRLSCAASGGTFNAMGWFRQAPGKEREWVASVLRGGYTWYADSVKGRFTISADNSKNTAYLQMNSLKPEDTAVYYCAKDGGSSGTYQNWWGQGTLVTVSS
notes: VHH-Fc fusion in assay
B6: TIGIT-SC204 (Fc fusion)
VHH: EVQLVESGGGLVQPGGSLRLSCAASGFLFNSYWMVWFRQAPGKEREFVAAIWRSGTLKAYADSVKGRFTISADNSKNTAYLQMNSLKPEDTAVYYCAADVNYGSTWRNWGQGTLVTVSS
notes: VHH-Fc fusion in assay
B7: TIGIT-SC186 (Fc fusion)
VHH: EVQLVESGGGLVQPGGSLRLSCAASGNTFSGGFMGWFRQAPGKEREYVASVLRGGYTWYADSVKGRFTISADNSKNTTYLQMNSLKPEDTAVYYCTTDRGYNWNYDWGQGTLVTVSS
notes: VHH-Fc fusion in assay
B8: TIGIT-SC174 (Fc fusion)
VHH: EVQLVESGGGLVQPGGSLRLSCAASGFLFDSYAMGWFRQAPGKEREFVAAISWSGGSTYYADSVKGRFTISADNSKNTAYLQMNSLKPEDTAVYYCTTDALRFLEWPWWGQGTLVTVSS
notes: VHH-Fc fusion in assay
B9: TIGIT-SC109 (Fc fusion)
VHH: EVQLVESGGGLVQPGGSLRLSCAASGRDISSYIMGWFRQAPGKERELVAIIDTNGDDTLYADSAKGRFTISADNSKNTAYLQMNSLKPEDTAVYYCANGGRVWWAFDYWGQGTLVTVSS
notes: VHH-Fc fusion in assay
B10: TIGIT-SC182 (Fc fusion)
VHH: EVQLVESGGGLVQPGGSLRLSCAASGFTFSSSSMGWFRQAPGKEREFVAAINWSGGSTSYADSVKGRFTISADNSKNTAYLQMNSPKPEDTAVYYCAKDRSYSFDYWGQGTLVTVSS
notes: VHH-Fc fusion in assay
B11: TIGIT-SC96 (Fc fusion)
VHH: EVQLVESGGGLVQPGGSLRLSCAASGMTTIGPMGWFRQAPGKEREFVAAINWSGSSTVYADSVKGRFTISADNSKNTAYLQMNSLKPEDTAVYYCVTYSAYDFRNAWGQGTLVTVSS
notes: VHH-Fc fusion in assay
B12: TIGIT-SC140 (Fc fusion)
VHH: EVQLVESGGGLVQPGGSLRLSCAASGNTFSGGFTFDRSWMGWFRQAPGKEREWVASVLRGGYTWYADSVKGRFTISADNSKNTAYLQMNSLKPEDTAVYYCAGDRYYDFWSGPNSGDYWGQGTLVTVSS
notes: VHH-Fc fusion in assay
B13: TIGIT-SC53 (Fc fusion)
VHH: EVQLVESGGGLVQPGGSLRLSCAASGFTFSPSWMGWFRQAPGKEREWVASVLRGGYTWYADSVKGRFTISADNSKNTAYLQMNSLKPEDTAVYYCARESTIVGAIDSWGQGTLVTVSS
notes: VHH-Fc fusion in assay
B14: TIGIT-SC105 (Fc fusion)
VHH: EVQLVESGGGLVQPGGSLRLSCAASGFAFSRYGMGWFRQAPGKERELVATIGWSGSSTFYADSVKGRFTISADNSKNTAYLQMNSLKPEDTAVYYCARDGGPYYYGLDVWGQGTLVTVSS
notes: VHH-Fc fusion in assay
B15: TIGIT-SC29 (Fc fusion)
VHH: EVQLVESGGGLVQPGGSLRLSCAASGFTLENNMMGWFRQAPGKERELVAAIDWSGGSTIYADSVKGRFTISADNSKNTAYLQMNSLKPEDTAVYYCARGHDYGDYIAYWGQGTLVTVSS
notes: VHH-Fc fusion in assay
B16: TIGIT-SC181 (Fc fusion)
VHH: EVQLVESGGGLVQPGGSLRLSCAASGFTLSSNWMGWFRQAPGKEREFVASVLRGGYTWYADSVKGRFTISADNSKNTAYLQMNSLKPEDTAVYYCARDAYYYGLWGQGTLVTVSS
notes: VHH-Fc fusion in assay
B17: TIGIT-SC205 (Fc fusion)
VHH: EVQLVESGGGLVQPGGSLRLSCAASGFTFDRSWMGWFRQAPGKEREFVAAIWRSGTLKAYADSVKGRFTISADNGKNTAYLQMNSLKPEDTAVYYCAEGGTTAWGWFVPWGQGTLVTVSS
notes: VHH-Fc fusion in assay
B18: TIGIT-SC118 (Fc fusion)
VHH: EVQLVESGGGLVQPGGSLRLSCAASGRTFSFMGWFRQAPGKEREWVASVLRGGYTWYADSVKGRFTISADNSKNTAYLQMNSLKPEDTAVYYCAKDGGWFDPWGQGTLVTVSS
notes: VHH-Fc fusion in assay
B19: TIGIT-SC30 (Fc fusion)
VHH: EVQLVESGGGLVQPGGSLRLSCAASGRSFSSDWIGWFRQAPGKERELVAAIDWSGGSALYADSVKGRFTISADNSKNTAYLQMNSLKPEDTAVYYCARVNWNNVGWFDPWGQGTLVTVSS
notes: VHH-Fc fusion in assay
B20: TIGIT-SC143 (Fc fusion)
VHH: EVQLVESGGGLVQPGGSLRLSCAASGFTLGYYVMGWFRQAPGKEREFVAAISASGTLRAYADSVEGRFTISADNSKNTAYLQMNSLKPEDTAVYYCARAELGYSYGSVDGYWGQGTLVTVSS
notes: VHH-Fc fusion in assay
B21: TIGIT-SC164 (Fc fusion)
VHH: EVQLVESGGGLVQPGGSLRLSCAASGFTFDRSWMGWFRQAPGKEREFVASVLRGGYTWYADSVKGRFTISADNSKNTAYLQMNSLKPEDTAVYYCTTEGSGWRNWGQGTLVTVSS
notes: VHH-Fc fusion in assay
B22: TIGIT-SC137 (Fc fusion)
VHH: EVQLVESGGGLVQPGGSLRLSCAASGFTLENNMMGWFRQAPGKEREFVAAISRSGTLKAYADSVKGRFTISADNSKNTAYLQMNSLKPEDTAVYYCSLVSGPRWYWGQGTLVTVSS
notes: VHH-Fc fusion in assay
B23: TIGIT-SC177 (Fc fusion)
VHH: EVQLVESGGGLVQPGGSLRLSCAASGFTFSPSWMGWFRQAPGKEREWVASVLRGGYTWYADSVKGRFTISADNSKNTAYLQMNSLKPEDTAVYYCATDRGPAMVFNLWGQGTLVTVSS
notes: VHH-Fc fusion in assay
B24: TIGIT-SC15 (Fc fusion)
VHH: EVQLVESGGGLVQPGGSLRLSCAASGSILSFNHIGWFRQAPGKEREGVAWIARYDGSTLYADSVKGRFTISADNSKNTAYLQMNSLKPEDTAVYYCARARGGYVDYWGQGTLVTVSS
notes: VHH-Fc fusion in assay
B25: TIGIT-SC199 (Fc fusion)
VHH: EVQLVESGGGLVQPGGSLRLSCAASGFSSAQYAMGWFRQAPGKERELVASIDSEGRTNYADSVKGRFTISADNSKNTAYLQMNSLKPEDTAVYYCTRDGGFDPWGQGTLVTVSS
notes: VHH-Fc fusion in assay
B26: TIGIT-SC27 (Fc fusion)
VHH: EVQLVESGGGLVQPGGSLRLSCAASGLTFSNYVMGWFRQAPGKEREVVAGILSDGRELYADSVKGRFTISADNSKNTAYLQMNSLKPEDTAVYYCARDVFGEGHWGQGTLVTVSS
notes: VHH-Fc fusion in assay

This experiment addresses T1, recombinant human TIGIT (human, UniProt Q495A1 22-141, limits assumed).
T1 construct: recombinant human TIGIT used in Carterra SPR; also called hTIGIT
T1 sequence (looked up): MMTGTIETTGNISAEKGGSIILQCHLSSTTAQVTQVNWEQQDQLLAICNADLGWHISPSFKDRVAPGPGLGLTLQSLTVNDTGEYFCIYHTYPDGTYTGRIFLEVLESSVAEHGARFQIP
The experiment can be described thus: SPR Carterra, average. As to the method: Binding affinities of VHH-Fc proteins to recombinant human TIGIT were measured by SPR using a Carterra instrument (Table 10A). […] Average values reported from measurements from 1-2 samples.
Regarding B1, the Kd (as a rule, the concentration at which binding is half-saturated) was 55.2 nM; the koff – broadly, the rate constant with which the complex falls apart – came out at 0.00778 s⁻¹; the kon (as a rule, a measure of how fast the partners come together) came out at 141000 M⁻¹ s⁻¹.

Regarding B2, the Kd stood at 66.5 nM, the koff amounted to 0.0213 s⁻¹ and the kon is 320000 M⁻¹ s⁻¹.

For the molecule B3, the dissociation constant Kd was determined as 131 nM, the koff stood at 0.0715 s⁻¹ and the kon turned out to be 545000 M⁻¹ s⁻¹.

B4: the Kd was determined as 841 nM, the off-rate (koff) amounted to 0.178 s⁻¹ and the kon was 211000 M⁻¹ s⁻¹.

Consider B5, for which the Kd is 103 nM, the koff was 0.00929 s⁻¹ and the kon turned out to be 89900 M⁻¹ s⁻¹.

Turning to B6, the Kd amounted to 66.7 nM, the koff worked out at 0.00339 s⁻¹ and the kon is 50800 M⁻¹ s⁻¹.

As for B7, the Kd turned out to be 170 nM, the koff was found to be 0.005 s⁻¹ and the kon worked out at 98700 M⁻¹ s⁻¹.

As to B8, the Kd was found to be 124 nM, the koff amounted to 0.0335 s⁻¹ and the kon stood at 444000 M⁻¹ s⁻¹.

With B9, the Kd stood at 121 nM, the koff came to 0.00468 s⁻¹ and the kon amounted to 38700 M⁻¹ s⁻¹.

As for B10, the Kd worked out at 60.6 nM, the koff came out at 0.00722 s⁻¹ and the kon turned out to be 119000 M⁻¹ s⁻¹.

As for B11, the Kd turned out to be 113 nM, the koff came out at 0.0176 s⁻¹ and the on-rate (kon) was determined as 166000 M⁻¹ s⁻¹.

B12: the Kd turned out to be 68.7 nM, the koff amounted to 0.00474 s⁻¹ and the kon was 68900 M⁻¹ s⁻¹.

Take B13: the Kd stood at 55.4 nM, the koff is 0.0027 s⁻¹ and the association rate constant (kon) was 48800 M⁻¹ s⁻¹.

In the case of B14, the Kd is 189 nM, the koff is 0.0116 s⁻¹ and the kon is 61600 M⁻¹ s⁻¹.

On to B15, for which the Kd turned out to be 59.2 nM, the koff was found to be 0.00287 s⁻¹ and the kon worked out at 48700 M⁻¹ s⁻¹.

Consider B16, for which the Kd came to 393 nM, the koff was 0.168 s⁻¹ and the kon came to 428000 M⁻¹ s⁻¹.

As to B17, the dissociation constant Kd was 119 nM, the koff is 0.0854 s⁻¹ and the kon worked out at 718000 M⁻¹ s⁻¹.

Regarding B18, the Kd was determined as 114 nM, the koff worked out at 0.00252 s⁻¹ and the kon turned out to be 29700 M⁻¹ s⁻¹.

Take B19: the Kd was 67.3 nM, the koff amounted to 0.0155 s⁻¹ and the kon was 231000 M⁻¹ s⁻¹.

In the case of B20, the Kd came out at 474 nM, the koff is 0.239 s⁻¹ and the kon stood at 504000 M⁻¹ s⁻¹.

Turning to B21, the Kd is 55.7 nM, the koff was determined as 0.00258 s⁻¹ and the kon was found to be 52800 M⁻¹ s⁻¹.

Take B22: the Kd came to 102 nM, the koff is 0.00688 s⁻¹ and the kon was 67500 M⁻¹ s⁻¹.

Turning to B23, the Kd amounted to 340 nM, the koff came to 0.00279 s⁻¹ and the kon turned out to be 48600 M⁻¹ s⁻¹.

Take B24: the Kd turned out to be 62 nM, the off-rate constant (koff) turned out to be 0.00814 s⁻¹ and the kon was 143000 M⁻¹ s⁻¹.

Take B25: the Kd came out at 321 nM, the koff was 0.128 s⁻¹ and the kon amounted to 399000 M⁻¹ s⁻¹.

In the case of B26, the Kd was found to be 80.6 nM, the koff was found to be 0.00624 s⁻¹ and the kon was 80900 M⁻¹ s⁻¹.

The values above are taken from patent US20260184782A1 (TWIST BIOSCIENCE, published 2026).
